Measurements from the supplement of paper PMC7877785.
± gives the uncertainty stated by the source.

Assay: self-splicing fitness, log relative to wild type (ln ratio); higher = more splicing; Tetrahymena group I intron in knt gene, E. coli kanamycin selection, DiMSum; sequences stand for … in CUCUCU…GGAGGGAAAAGUUAUCAGGCAUGCACCUGGUAGCUAGUCUUUAAACCAAUAGAUUGCAUCGGUUUAAAAGGCAAGACCGUCAAAUUGCGGGAAAGGGGUCAACAGCCGUUCAGUACCAAGUCUCAGGGGAAACUUUGAGAUGGCCUUGCAAAGGGUAUGGUAAUAAGCUGACGGACAUGGUCCUAACCACGCAGCCAAGUCCUAAGUCAACAGAUCUUCUGUUGAUAUGGAUGCAGUUCACAGACUAAAUGUCGGUCGGGGAAGAUGUAUUCUUCUCAUAAGAUAUAGUCGGACCUCUCCUUAAUGGGAGCUAGCGGAUGAAGUGAUGCAACACUGGAGCCGCUGGGAACUAAUUUGUAUGCGAAAGUAUAUUGAUUAGUUUUGGAGUACUCGUGGUCG
Outline: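 Six replicate transformations of E. coli BL21(DE3) with a pET-22b(+) library were grown overnight at 37°C or 30°C. The library randomised all eight P1ex-region intron nucleotides, the intron lying in the knt kanamycin-resistance gene, and plates were LB agar with or without 25 μg/mL kanamycin plus 100 μg/mL carbenicillin, 50 μM IPTG and 0.2% rhamnose. Pooled colonies were amplicon-sequenced on an Illumina HiSeq 2500, and fitness is the DiMSum error-weighted combination of wild-type-normalised replicate fold changes, kanamycin versus none.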

| Sequence | self-splicing fitness (ln) (30 °C) | self-splicing fitness (ln) (37 °C) |
| --- | --- | --- |
| AAUUAGCAAUAUUACGCCCC | -0.573 ± 0.33 | -0.798 ± 0.49 |
| AAUUAGCAAUAUUACGCGCU | -0.647 ± 0.13 | -0.214 ± 0.2 |
| AAUUAGCAAUAUUACGCUCU | -0.501 ± 0.11 | 0.54 ± 0.15 |
| AAUUAGCAAUAUUACGCUGC |  | -2.79 ± 0.4 |
| AAUUAGCAAUAUUACGGAAA | -1.83 ± 0.29 | -1.72 ± 0.49 |
| AAUUAGCAAUAUUACGGACU | -0.43 ± 0.087 | 0.51 ± 0.14 |
| AAUUAGCAAUAUUACGGAGG | -3.68 ± 0.39 | -1.87 ± 0.25 |
| AAUUAGCAAUAUUACGGCGC | -0.632 ± 0.13 | -0.211 ± 0.13 |
| AAUUAGCAAUAUUACGGGGC | -2.38 ± 0.21 |  |
| AAUUAGCAAUAUUACGUCAG | -1.16 ± 0.14 | -1.47 ± 0.24 |
| AAUUAGCAAUAUUACGUGGU | -4.47 ± 0.26 | -2.18 ± 0.14 |
| AAUUAGCAAUAUUACGUGUC | -3.59 ± 0.29 | -1.79 ± 0.2 |
| AAUUAGCAAUAUUACGUUGA | -2.74 ± 0.15 | -1.55 ± 0.11 |
| ACAAAGCAAUAUUACGAAAC |  | -0.88 ± 0.2 |
| ACAAAGCAAUAUUACGACUC | -0.72 ± 0.11 | -0.304 ± 0.12 |
| ACAAAGCAAUAUUACGAUAG | -3.47 ± 0.17 | -2.21 ± 0.19 |
| ACAAAGCAAUAUUACGAUGU | -3.56 ± 0.11 | -2.43 ± 0.12 |
| ACAAAGCAAUAUUACGCAAC | -2.37 ± 0.17 | -0.412 ± 0.17 |
| ACAAAGCAAUAUUACGCAGA | -2.12 ± 0.14 | -1.06 ± 0.093 |
| ACAAAGCAAUAUUACGCGGC | -2.91 ± 0.13 | -3.04 ± 0.21 |
| ACAAAGCAAUAUUACGCUAG | -1.53 ± 0.072 | -1.72 ± 0.086 |
| ACAAAGCAAUAUUACGGCCA | -1.13 ± 0.14 | -0.00489 ± 0.11 |
| ACAAAGCAAUAUUACGGCGU | -1.78 ± 0.075 | -1.17 ± 0.093 |
| ACAAAGCAAUAUUACGGGAC | -3.25 ± 0.17 | -1.96 ± 0.14 |
| ACAAAGCAAUAUUACGGGCU | -1.07 ± 0.055 | -0.972 ± 0.088 |
| ACAAAGCAAUAUUACGUAAU | -2.62 ± 0.061 | -1.14 ± 0.074 |

| Sequence | self-splicing fitness (ln) (30 °C) | self-splicing fitness (ln) (37 °C) |
| --- | --- | --- |
| ACAAAGCAAUAUUACGUAGG | -2.88 ± 0.1 | -1.55 ± 0.12 |
| ACAAAGCAAUAUUACGUGGG | -3.35 ± 0.13 | -2.47 ± 0.14 |
| ACAAAGCAAUAUUACGUGUC | -3.69 ± 0.14 | -3 ± 0.16 |
| ACAAAGCAAUAUUACGUGUG | -1.91 ± 0.052 | -0.905 ± 0.057 |
| ACAAAGCAAUAUUACGUUCA | -1.2 ± 0.068 | -0.708 ± 0.076 |
| ACACAGCAAUAUUACGAACU | -0.798 ± 0.05 | -0.493 ± 0.068 |
| ACACAGCAAUAUUACGAAGC | -4.18 ± 0.22 | -2.8 ± 0.21 |
| ACACAGCAAUAUUACGAAUA | -2.21 ± 0.13 | -1.6 ± 0.11 |
| ACACAGCAAUAUUACGACUG | -0.972 ± 0.047 | -0.67 ± 0.06 |
| ACACAGCAAUAUUACGAGCA | -1.44 ± 0.12 | -1.45 ± 0.13 |
| ACACAGCAAUAUUACGAUAC | -2.58 ± 0.26 | -2.69 ± 0.25 |
| ACACAGCAAUAUUACGCAGU | -3.84 ± 0.14 | -2.73 ± 0.12 |
| ACACAGCAAUAUUACGCCUU | -1.62 ± 0.076 | -0.434 ± 0.091 |
| ACACAGCAAUAUUACGCGCG | -0.558 ± 0.082 | 0.0666 ± 0.091 |
| ACACAGCAAUAUUACGCGGG | -2.43 ± 0.075 | -1.69 ± 0.091 |
| ACACAGCAAUAUUACGCGUG | -2.25 ± 0.074 | -1.68 ± 0.081 |
| ACACAGCAAUAUUACGCUCA | -0.416 ± 0.087 | -0.203 ± 0.093 |
| ACACAGCAAUAUUACGGACC | -1.99 ± 0.093 | -0.524 ± 0.11 |
| ACACAGCAAUAUUACGGCCA | -1.18 ± 0.12 | -1.17 ± 0.11 |
| ACACAGCAAUAUUACGGGUG | -1.31 ± 0.053 | -0.999 ± 0.065 |
| ACACAGCAAUAUUACGGUGA | -1.31 ± 0.068 | 0.17 ± 0.077 |
| ACACAGCAAUAUUACGUCCC | -1.16 ± 0.098 | -0.00572 ± 0.12 |
| ACACAGCAAUAUUACGUCGG | -1.65 ± 0.052 | -1.16 ± 0.071 |
| ACACAGCAAUAUUACGUGAG | -1.02 ± 0.05 | 0.121 ± 0.074 |
| ACACAGCAAUAUUACGUUCU | -0.986 ± 0.06 | -0.532 ± 0.068 |
| ACAGAGCAAUAUUACGAGAG |  | -2.6 ± 0.28 |

| Sequence | self-splicing fitness (ln) (30 °C) | self-splicing fitness (ln) (37 °C) |
| --- | --- | --- |
| ACAGAGCAAUAUUACGCAUA | -3.96 ± 0.31 | -1.8 ± 0.2 |
| ACAGAGCAAUAUUACGCGAU | -3.54 ± 0.24 | -3.29 ± 0.3 |
| ACAGAGCAAUAUUACGGAAU | -4.08 ± 0.29 | -1.86 ± 0.31 |
| ACAGAGCAAUAUUACGGACU | -2.73 ± 0.18 | -1.07 ± 0.14 |
| ACAGAGCAAUAUUACGGCUC | -3.09 ± 0.16 | -2.37 ± 0.22 |
| ACAGAGCAAUAUUACGGGGA | -4.66 ± 0.34 | -3.55 ± 0.25 |
| ACAGAGCAAUAUUACGGGUG | -2.96 ± 0.15 | -1.43 ± 0.12 |
| ACAGAGCAAUAUUACGGUUU | -3.11 ± 0.2 | -1.81 ± 0.16 |
| ACAGAGCAAUAUUACGUACG | -3.9 ± 0.23 | -2.3 ± 0.2 |
| ACAGAGCAAUAUUACGUGAU | -2.97 ± 0.1 | -2.08 ± 0.15 |
| ACAGAGCAAUAUUACGUUAU | -3.59 ± 0.19 | -3 ± 0.25 |
| ACAUAGCAAUAUUACGACAA | -0.573 ± 0.12 | -0.73 ± 0.12 |
| ACAUAGCAAUAUUACGAGCU | -1.32 ± 0.12 | -0.388 ± 0.13 |
| ACAUAGCAAUAUUACGAUAC | -3.6 ± 0.23 | -2.2 ± 0.25 |
| ACAUAGCAAUAUUACGAUCG | 0.0966 ± 0.084 | -0.312 ± 0.13 |
| ACAUAGCAAUAUUACGAUUC | -2.52 ± 0.15 | -1.52 ± 0.12 |
| ACAUAGCAAUAUUACGGAAC | -3.66 ± 0.24 | -2 ± 0.27 |
| ACAUAGCAAUAUUACGGCCC | -1.29 ± 0.14 | -0.169 ± 0.23 |
| ACAUAGCAAUAUUACGGCUC | -0.967 ± 0.092 | -0.28 ± 0.12 |
| ACAUAGCAAUAUUACGGGCG | -1.28 ± 0.09 | -1 ± 0.096 |
| ACAUAGCAAUAUUACGUCCC | -1.71 ± 0.15 | -0.222 ± 0.23 |
| ACAUAGCAAUAUUACGUCGC | -4.47 ± 0.38 | -1.69 ± 0.24 |
| ACAUAGCAAUAUUACGUGCG | -1.05 ± 0.064 | -0.527 ± 0.081 |
| ACAUAGCAAUAUUACGUGUG | -2.41 ± 0.065 | -1.58 ± 0.069 |
| ACAUAGCAAUAUUACGUUAU | -4.28 ± 0.29 | -3.07 ± 0.2 |
